{"source": "paper PMC6283417", "about": "“The structure of the RbBP5 β-propeller domain reveals a surface with potential nucleic acid binding sites”", "binders": {"B1": {"name": "14-mer ssRNA-6FAM (ssRNA)", "RNA": "GCAUAGGUUCGAUC"}, "B2": {"name": "SIA optimized RNA 7-mer (ssRNA)", "RNA": "UAGGUUC"}}, "key": {"[1]": {"biological_target": "T1, RbBP5 beta-propeller (1-340) wild type (mouse, UniProt Q8BX09 1-340)", "T1 sequence (Q8BX09 1-340)": "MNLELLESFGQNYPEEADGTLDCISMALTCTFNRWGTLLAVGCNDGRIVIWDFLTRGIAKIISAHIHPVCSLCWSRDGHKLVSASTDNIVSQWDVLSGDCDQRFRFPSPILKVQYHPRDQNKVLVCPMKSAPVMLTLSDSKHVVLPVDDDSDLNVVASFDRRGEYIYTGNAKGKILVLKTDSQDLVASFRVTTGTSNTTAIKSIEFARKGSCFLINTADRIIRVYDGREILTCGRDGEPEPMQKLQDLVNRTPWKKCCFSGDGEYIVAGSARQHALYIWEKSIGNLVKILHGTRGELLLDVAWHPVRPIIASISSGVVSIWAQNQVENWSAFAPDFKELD", "assay": "fluorescence anisotropy; Anisotropy: 50 mM Tris pH 7.4, 150 mM NaCl, 0.5 mM DTT, 20 C; NMR conditions not in the material", "settings": "protein: recombinant; tags: 6xHis-SUMO removed by 3C protease; label: 6-FAM (3')"}, "[2]": {"biological_target": "T1, RbBP5 beta-propeller (1-340) wild type", "assay": "NMR 1H-15N HSQC titration; marginally stronger than 7N-RNA pool; Anisotropy: 50 mM Tris pH 7.4, 150 mM NaCl, 0.5 mM DTT, 20 C; NMR conditions not in the material", "settings": "protein: recombinant; tags: 6xHis-SUMO removed by 3C protease"}}}
{"binder": "B1", "values": [{"measurement": "Kd", "setting": "[1]", "result": "22.5 ± 3.2", "unit": "µM"}]}
{"binder": "B2", "values": [{"measurement": "binding result", "setting": "[2]", "result": "binds"}]}
